In one test the target is T1, recombinant human gp130 (human, UniProt P40189 23-619, limits assumed).
T1 sequence (looked up): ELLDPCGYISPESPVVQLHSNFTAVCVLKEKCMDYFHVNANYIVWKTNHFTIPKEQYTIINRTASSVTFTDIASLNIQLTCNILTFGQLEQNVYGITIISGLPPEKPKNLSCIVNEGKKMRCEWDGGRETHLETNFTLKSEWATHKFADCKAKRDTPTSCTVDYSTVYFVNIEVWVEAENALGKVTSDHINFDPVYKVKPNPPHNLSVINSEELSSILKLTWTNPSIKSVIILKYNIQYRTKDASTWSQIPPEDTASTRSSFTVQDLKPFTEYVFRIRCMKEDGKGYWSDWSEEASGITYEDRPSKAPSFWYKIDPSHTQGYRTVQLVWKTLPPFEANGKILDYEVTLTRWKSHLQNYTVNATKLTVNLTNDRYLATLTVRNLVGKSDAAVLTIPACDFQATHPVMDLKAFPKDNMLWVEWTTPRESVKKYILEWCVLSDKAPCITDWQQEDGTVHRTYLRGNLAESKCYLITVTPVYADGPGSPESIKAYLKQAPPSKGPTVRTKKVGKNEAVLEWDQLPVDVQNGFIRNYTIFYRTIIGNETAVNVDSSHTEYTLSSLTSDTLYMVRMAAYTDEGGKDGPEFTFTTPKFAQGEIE
Kind of test: ELISA of mAb/LIF complexes on immobilized gp130, read through the antibody part (B09, anti-rat IgG-peroxidase). (In general: ELISA stands for enzyme-linked immunosorbent assay.)

In another test the target is T2, huIL-6 (E. coli) (human, UniProt P05231 30-212, limits assumed).
T2 construct: also called human IL-6
T2 sequence (P05231 30-212 limits assumed): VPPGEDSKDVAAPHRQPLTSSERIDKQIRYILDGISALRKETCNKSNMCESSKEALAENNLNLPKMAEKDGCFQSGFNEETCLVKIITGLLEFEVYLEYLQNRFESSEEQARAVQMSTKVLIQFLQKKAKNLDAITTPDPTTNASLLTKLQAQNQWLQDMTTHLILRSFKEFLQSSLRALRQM
Briefly: BLI (Octet), h5D8 amine-coupled to AR2G sensor, cytokine as analyte.

The next test has as its target T3, recombinant human LIFR (human, UniProt P42702 45-833, limits assumed).
T3 construct: also called hLIFR; LIF receptor
T3 sequence (looked up): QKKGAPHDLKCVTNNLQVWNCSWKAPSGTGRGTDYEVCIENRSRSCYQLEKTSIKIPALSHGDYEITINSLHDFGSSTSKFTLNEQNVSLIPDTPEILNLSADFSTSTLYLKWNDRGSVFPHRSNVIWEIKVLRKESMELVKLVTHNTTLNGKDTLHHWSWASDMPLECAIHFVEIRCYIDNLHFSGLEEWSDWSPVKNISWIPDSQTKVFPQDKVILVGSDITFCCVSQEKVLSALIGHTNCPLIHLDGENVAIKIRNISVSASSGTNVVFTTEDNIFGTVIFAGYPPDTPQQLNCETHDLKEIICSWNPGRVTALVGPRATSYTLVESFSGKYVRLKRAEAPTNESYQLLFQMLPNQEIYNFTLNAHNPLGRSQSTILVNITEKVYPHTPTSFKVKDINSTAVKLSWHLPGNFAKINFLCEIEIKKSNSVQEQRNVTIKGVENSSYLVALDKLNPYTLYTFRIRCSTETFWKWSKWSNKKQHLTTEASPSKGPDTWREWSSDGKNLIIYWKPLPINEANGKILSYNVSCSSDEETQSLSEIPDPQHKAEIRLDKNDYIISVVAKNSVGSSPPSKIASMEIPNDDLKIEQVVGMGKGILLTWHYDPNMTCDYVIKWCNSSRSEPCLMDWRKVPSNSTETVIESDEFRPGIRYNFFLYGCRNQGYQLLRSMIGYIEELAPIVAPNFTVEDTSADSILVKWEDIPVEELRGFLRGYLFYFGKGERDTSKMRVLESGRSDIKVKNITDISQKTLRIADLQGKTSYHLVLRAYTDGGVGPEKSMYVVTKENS
Kind of test: BLI (Octet RED96), control experiment, h5D8 on anti-human Fc sensor. In general terms: In BLI a coated tip is dipped into the sample, and binding shifts an interference pattern.

The target in test [1] is LIF acting on U251 / U-251 glioma cells (endogenous LIF) (human, UniProt P15018 23-202). Briefly: cell-based or functional assay.
Chain of LIF acting on U251 / U-251 glioma cells (endogenous LIF) (P15018 23-202 limits assumed): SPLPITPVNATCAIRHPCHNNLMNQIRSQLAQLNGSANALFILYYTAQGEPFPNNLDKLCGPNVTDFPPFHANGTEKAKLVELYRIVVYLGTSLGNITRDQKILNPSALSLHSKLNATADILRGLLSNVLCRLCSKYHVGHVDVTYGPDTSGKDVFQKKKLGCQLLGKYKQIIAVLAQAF

Description for huIL-6 (E. coli): Kinetics experiments were then performed with the following Dip and Read steps at 30° C., 1000 rpm: vi) 60 seconds Baseline in 1× kinetics buffer; vii) 180 seconds Association of appropriate serial dilutions of a cytokine in 1× kinetics buffer; viii) 300 seconds Dissociation in 1× kinetics buffer; ix) Three Regeneration/Neutralization cycles alternating between 10 mM glycine pH 2.0 and 1× kinetics buffer respectively (5 seconds in each for 3 cycles). Following regeneration, the biosensors were reused for subsequent binding analyses.

B1: human LIF (source not stated) (ligand)
chain: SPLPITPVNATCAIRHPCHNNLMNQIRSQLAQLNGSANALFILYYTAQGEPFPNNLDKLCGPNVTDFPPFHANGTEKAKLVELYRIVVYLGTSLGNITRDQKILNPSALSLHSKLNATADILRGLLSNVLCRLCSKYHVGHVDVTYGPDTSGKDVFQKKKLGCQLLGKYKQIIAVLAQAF
notes: also called hLIF; recombinant human LIF protein
Take B1: in the test with recombinant human gp130, the binding result is listed as “binds”.

B2: h5D8 (humanized 5D8 comprising H2 and L2) (antibody, human IgG1, kappa, V domains shown)
VH: QVQLQESGGGLVKPGGSLRLSCAASGFTFSHAWMHWVRQAPGKGLEWVGQIKAKSDDYATYYAESVKGRFTISRDDSKNTLYLQMNSLKTEDTAVYYCTCWEWDLDFWGQGTMVTVSS
VL: DIVMTQTPLSSPVTLGQPASISCRSSQSLLDSDGHTYLNWLQQRPGQPPRLLIYSVSNLESGVPDRFSGSGAGTDFTLKISRVEAEDVGVYYCMQATHAPPYTFGQGTKLEIKR
notes: also called H2L2; G (H2L2)
Regarding B2, the binding result with huIL-6 (E. coli) and with recombinant human LIFR was “no binding” each time. Also, in test [1], the “IC50 for biological inhibition (pSTAT3), serum starved U-251 cells” value turned out to be 490 picomolar.

For the origin of these results see US20230042095A1 (AstraZeneca / MedImmune, published 2023).
